Assay results taken from the RNAGym collection of RNA variant scans (doi:10.7554/elife.80360).

B1: HDV Ribozyme (parent)
chain: GGCCGGCAUGGUCCCAGCCUCCUCGCUGGCGCCGGCUGGGCAACAUUCCGAGGGGACCGUCCCCUCGGUAAUGGCGAAUGGGACCCA

Variants of: B1
Assay: self-cleavage, relative activity (ratio to wild type); higher = more cleavage; co-transcriptional

Row | Variant | self-cleavage
1 | GGCCGGCAUGGUCCCAGCCUCCUCGCUGGCGCCGGCCGGGCAACAUUCCGAGGGGACCAUCCCCUCGGUAAUGGCGAAUGGGACCCA | 1.1
2 | GGCCGGCAUGGUCCCAGCCUCCUCGCUGGCGCCGGCGGGGCAACAUUCCGGGGGGACCGUCCCCUCGGUAAUGGCGAAUGGGACCCA | 0.0639
3 | GGCCGGCAUGGUCCCAGCCUCCUCGCUGGCGCCGGCCGUGCAACAUUCCGAGGGGACCGUCCCCUCGGUAAUGGCGAAUGGGACCCA | 0.564
4 | GGCCGGCAUGGUCCCAGCCUCCUCGCUGGCGCCGGCCGGGCAACAUUCCGAGGGGACCGUCCCCUUGGUAAUGGCGAAUGGGACCCA | 1.01
5 | GGCCGGCAUGGUCCCAGCCUCCUCGCUGGCGCCGGCCGGGCAACAUUCCGAGGGGACCGGCCCCUCGGUAAUGGCGAAUGGGACCCA | 0.906
6 | GGCCGGCAUGGUCCCAGCCUCCUCGCUGGCGCCGGCCGGGCAACAUUCCGAGGGGACCGUCCCCUCGGUAAUGUCGAAUGGGACCCA | 0.332
7 | GGCCGGCAUGGUCCCAGCCUCCUCGCUGGCGCCGGCGGGGCAACAUUCCGAGGGGUCCGUCCCCUCGGUAAUGGCGAAUGGGACCCA | 0.0723
8 | GGCCGGCAUGGUCCCAGCCUCCUCGCUGGCGCCGGCGGGGCAACAUUCCGAGGGGCCCGUCCCCUCGGUAAUGGCGAAUGGGACCCA | 0
9 | GGCCGGCAUGGUCCCAGCCUCCUCGCUGGCGCCGGCCAGGCAACAUUCCGAGGGGACCGUCCCCUCGGUAAUGGCGAAUGGGACCCA | 0.0354
10 | GGCCGGCAUGGUCCCAGCCUCCUCGCUGGCGCCGGCCGGGCAACAUUCCGAGGGGACCGUCCCCUCGGUAAUGGCGAAUGGGAUCCA | 0.655
11 | GGCCGGCAUGGUCCCAGCCUCCUCGCUGGCGCCGGCCGGGCAACAUUCCGAGGGGACCGUCCUCUCGGUAAUGGCGAAUGGGACCCA | 1.11
12 | GGCCGGCAUGGUCCCAGCCUCCUCGCUGGCGCCGGCCGGGCAACAUUCCGACGGGACCGUCCCCUCGGUAAUGGCGAAUGGGACCCA | 0.856
13 | GGCCGGCAUGGUCCCAGCCUCCUCGCUGGCGCCGGCCGGGCAACAUUCCGAGCGGACCGUCCCCUCGGUAAUGGCGAAUGGGACCCA | 1.2
14 | GGCCGGCAUGGUCCCAGCCUCCUCGCUGGCGCCGGCCGGGCAACAUUCCGAGAGGACCGUCCCCUCGGUAAUGGCGAAUGGGACCCA | 1.04
15 | GGCCGGCAUGGUCCCAGCCUCCUCGCUGGCGCCGGCCGGGCAACAUUCCGAGGGGACCGUCCCCUCGGUAAUGGCGAAUUGGACCCA | 0.224
16 | GGCCGGCAUGGUCCCAGCCUCCUCGCUGGCGCCGGCCGGGCAACAAUCCGAGGGGACCGUCCCCUCGGUAAUGGCGAAUGGGACCCA | 0.458

Row | Variant | self-cleavage
17 | GGCCGGCAUGGUCCCAGCCUCCUCGCUGGCGCCGGCCGGGCAACAUUCCGAGGGGACCGUCCCCUCGGUAAUGGCGAAUGGGACCAA | 0.974
18 | GGCCGGCAUGGUCCCAGCCUCCUCGCUGGCGCCGGCGGGGCAAUAUUCCGAGGGGACCGUCCCCUCGGUAAUGGCGAAUGGGACCCA | 0.119
19 | GGCCGGCAUGGUCCCAGCCUCCUCGCUGGCGCCGGCCGGGCAACAUUCCGAGGGGACCGUCCCCUCGGUAAUGGCCAAUGGGACCCA | 1.19
20 | GGCCGGCAUGGUCCCAGCCUCCUCGCUGGCGCCGGCCGGGCAACAUUCCCAGGGGACCGUCCCCUCGGUAAUGGCGAAUGGGACCCA | 1.07
21 | GGCCGGCAUGGUCCCAGCCUCCUCGCUGGCGCCGGCCGGGCAACAUUCCAAGGGGACCGUCCCCUCGGUAAUGGCGAAUGGGACCCA | 1.01
22 | GGCCGGCAUGGUCCCAGCCUCCUCGCUGGCGCCGGCGGGGCAACUUUCCGAGGGGACCGUCCCCUCGGUAAUGGCGAAUGGGACCCA | 0
23 | GGCCGGCAUGGUCCCAGCCUCCUCGCUGGCGCCGGCCGGGCAACAUCCCGAGGGGACCGUCCCCUCGGUAAUGGCGAAUGGGACCCA | 0.791
24 | GGCCGGCAUGGUCCCAGCCUCCUCGCUGGCGCCGGCCGGGCAACAUGCCGAGGGGACCGUCCCCUCGGUAAUGGCGAAUGGGACCCA | 0.8
25 | GGCCGGCAUGGUCCCAGCCUCCUCGCUGGCGCCGGCGGGGCAACAUUCAGAGGGGACCGUCCCCUCGGUAAUGGCGAAUGGGACCCA | 0.0573
26 | GGCCGGCAUGGUCCCAGCCUCCUCGCUGGCGCCGGCGGGGCAACAUUCGGAGGGGACCGUCCCCUCGGUAAUGGCGAAUGGGACCCA | 0.196
27 | GGCCGGCAUGGUCCCAGCCUCCUCGCUGGCGCCGGCGGGGCAACAUUCUGAGGGGACCGUCCCCUCGGUAAUGGCGAAUGGGACCCA | 0.268
28 | GGCCGGCAUGGUCCCAGCCUCCUCGCUGGCGCCGGCGGGGCAACAUUCCGAGGGGAACGUCCCCUCGGUAAUGGCGAAUGGGACCCA | 0.0978
29 | GGCCGGCAUGGUCCCAGCCUCCUCGCUGGCGCCGGCGGGGCAACAUUUCGAGGGGACCGUCCCCUCGGUAAUGGCGAAUGGGACCCA | 0
30 | GGCCGGCAUGGUCCCAGCCUCCUCGCUGGCGCCGGCCGGGCAACAUUCCGAGGGCACCGUCCCCUCGGUAAUGGCGAAUGGGACCCA | 1.1
31 | GGCCGGCAUGGUCCCAGCCUCCUCGCUGGCGCCGGCCGGACAACAUUCCGAGGGGACCGUCCCCUCGGUAAUGGCGAAUGGGACCCA | 0.95
32 | GGCCGGCAUGGUCCCAGCCUCCUCGCUGGCGCCGGCGGGGCAACAUUCCGAGGGGACCGUCCCCUCGGUCAUGGCGAAUGGGACCCA | 0.312
